Results taken from patent US20200247886A1.

Target: human CD47 expressed on cells (CD47 expressing CHO cells, Jurkat, HL60, DLD1, Raji) (human) (UniProt Q08722)
Assay: flow cytometry on human red blood cells, donor 2, MFI; EC50 (nM) table beside the legend; control whose curve stays low

- EC50: 0.08 nM
Substance: IgG (antibody)
